Two molecules from patent US5580760, “FUSE binding protein and cDNA therefor” (The United States of America as represented by the …) can be followed below.

The target in data set [1] is FBP full length (CMV expression) (Homo sapiens) (UniProt Q96AE4). Nature of the data set: cell_activity. The note with it: CAT activation vs empty vector, U937 cells.
Data set [2] deals with GST alone (UniProt P08515 P08515:1-218). In words: EMSA; GST control. The conditions noted are these: tags: pGEX-2T without insert; label: 5'-32P. As to the method: Purified recombinant proteins were incubated with double stranded, ^32P labeled, oligonucleotide (Probe) in the presence or absence of the indicated quantity of unlabeled, double stranded oligonucleotide as competitor, and subjected to EMSA. (M. Fried and D. M. Crothers, *Nucleic Acids Res.* 9, 6505 (1981)).
DNA binding assays were performed with an equivalent amount of GST-FBP or GST alone incubated in 25 mM Tris, 200 mM Glycine, 1 mM EDTA, 0.5 mg/ml BSA, 0.1% Tween20, 10% glycerol, 100 µg/ml poly(dI:dC), and 0.2 ng of labeled probe. The probe was prepared by annealing two complementary synthetic oligonucleotides and 5' end labeling with T_4 polynucleotide kinase in the presence of γ-^32P-ATP. The top strand of the FUSE oligonucleotide was 5'-[…]-3'(SEQ ID NO: 11). The top strand of Mut A was 5'-GATCACAActacgtgctaggacgccGAATATAG-3' (SEQ ID NO: 12) (lower case indicates changes from FUSE oligomer sequence). The top strand of CRE was 5'-[…]-3' (SEQ ID NO: 13). The top strand of CTE was 5'-[…]-3' (SEQ ID NO: 14). Reaction mixtures were incubated 30 minutes at room temperature and protein-DNA complexes resolved by electrophoresis on a 4.2% acrylamide gel in 25 mM Tris, 200 mM Glycine, 1 mM EDTA buffer.

In data set [3] the target is GST-FBP 278-474 (Homo sapiens, UniProt Q96AE4 SEQ:278-474). Nature of the data set: EMSA. The conditions noted are these: tags: N-terminal GST; label: 5'-32P.
Data set [4] addresses GST-FBP 278-511 insertion mutant 2 (Homo sapiens, UniProt Q96AE4 SEQ:278-511, insertion IGSRIR after M297). Nature of the data set: EMSA. The note with it: tags: N-terminal GST; C-terminal KEIEQKVQE; label: 5'-32P.
In data set [5] the target is GST-FBP 278-511 insertion mutant 9 (Homo sapiens, UniProt Q96AE4 SEQ:278-511, insertion RGSG with deletion of P after 475). Nature of the data set: EMSA. The note with it: tags: N-terminal GST; C-terminal KEIEQKVQE; label: 5'-32P.
The target in data set [6] is GST-FBP 278-511 insertion mutant 7 (Homo sapiens, UniProt Q96AE4 SEQ:278-511, insertion RIR after 373). In words: EMSA. The conditions noted are these: tags: N-terminal GST; C-terminal KEIEQKVQE; label: 5'-32P.
The target of data set [7] is GST-FBP 278-372 (Homo sapiens, UniProt Q96AE4 SEQ:278-372). Nature of the data set: EMSA. The conditions noted are these: tags: N-terminal GST; label: 5'-32P.
The target in data set [8] is GST-FBP 278-511 insertion mutant 4 (Homo sapiens, UniProt Q96AE4 SEQ:278-511, Q333 replaced by PRIRE). In words: EMSA. The note with it: tags: N-terminal GST; C-terminal KEIEQKVQE; label: 5'-32P.
Data set [9] deals with GST-FBP 278-511 insertion mutant 8 (Homo sapiens, UniProt Q96AE4 SEQ:278-511, insertion RDPA with deletion of QS after 404). Nature of the data set: EMSA. The note with it: tags: N-terminal GST; C-terminal KEIEQKVQE; label: 5'-32P.
Data set [10] has as its target GST-FBP 278-511 insertion mutant 1 (Homo sapiens, UniProt Q96AE4 SEQ:278-511, insertion RIR between GST and FBP). Nature of the data set: EMSA. The conditions noted are these: tags: N-terminal GST; C-terminal KEIEQKVQE; label: 5'-32P.
Data set [11] addresses GST-FBP 278-511 insertion mutant 5 (Homo sapiens, UniProt Q96AE4 SEQ:278-511, insertion GIP after 336). Nature of the data set: EMSA. The note with it: tags: N-terminal GST; C-terminal KEIEQKVQE; label: 5'-32P.
For data set [12], the target named is GST-FBP 278-511 insertion mutant 3 (Homo sapiens, UniProt Q96AE4 SEQ:278-511, insertion IRIR after M297). In words: EMSA. The conditions noted are these: tags: N-terminal GST; C-terminal KEIEQKVQE; label: 5'-32P.
Data set [13] concerns the target GST-FBP 298-511 (Homo sapiens, UniProt Q96AE4 SEQ:298-511). In words: EMSA. The note with it: tags: N-terminal GST; C-terminal KEIEQKVQE; label: 5'-32P.
Data set [14] addresses GST-FBP 278-511 (Homo sapiens, UniProt Q96AE4 SEQ:278-511). Nature of the data set: EMSA; same specificity as full length (FIG. 6C). The note with it: tags: N-terminal GST (pGEX-1); C-terminal KEIEQKVQE; label: 5'-32P.

Molecule myc-CAT reporter with FUSE had an activity in [1] of 5 fold.

B1: FUSE (dsDNA)
DNA 1: GATCACAAAATAAAAAATCCCGAGGGAATATAG
DNA 2: CTATATTCCCTCGGGATTTTTTATTTTGTGATC
With B1, the binding result in [2] is reported as “no binding”; in [3], “binds”; in [4], “no binding”; in data set [5], “binds”; in [6] it was “binds”; in [7], “no binding”. The binding result in data set [8] was “no binding”; in data set [9], “no binding”; in data set [10], “binds”; in data set [11], “no binding”; in data set [12] it was “no binding”; in [13], “no binding”. In [14], the binding result is reported as “binds”.
